B1: AvrL567-A protein (residues 24-150), purified (natural protein)
chain: MEHVPAELTRVSEGYTRFYRSPTASVILSGLVKVKWDNEQMTMPLFKWIGGEQAEELHFCVHIAHSSGPKLNRARSLGTVNSNMDQHWAQAQRNSGATRRTIEGFHLFENDIPNFPDYIKIKLVPKT
B2: LuCKX1.1 (Linum usitatissimum) (protein)
chain: LQGSIDYSTLAADFTGKDFGGVYSSNPLALIRPSGADDVARVLKSACRSSNLTVAARGNGHSINGQAMADGGIVLDMRSTEGNHFKILRINGGDHTAYADVSGGALWEDILMRCVSEYGLAPRSWTDYLRLTVGGTLSNAGVSGQAFRYGPQSSNVTELDVVTGKGDFLTCSPTHNSDLFFGALGGLGQFGVITRARIPLEPAPDMVRWIRMVYAEFEDFSRDAEWLVTQPEKESFDYVEGFAFVNSDSPADGWPSVPLYPNHMMEPTTPIHSGHQLLYCLELALHFNHSNSSSTVDSVVKRLIGGLRYMKGFKYEVDLSYVEFVMRVKRVEEDARAHGMWDAPHPWLNLFVSKADIAEFDRLIFKGLLHDGVGGPMLVYPLLRSKWDSRSSVVLPEGEDEIFYIVALLRSNPPYPKGPSVDKLVSQNDKIIQSCIQHGLGFKLYLPHYQSQHDWRRHFGDQWSKFVQLKLAFDPMAVLAPGQKIFTRTTK
notes: crystal model residues 44-532, two molecules per asymmetric unit; FAD covalently linked to His104

What was measured:
[1] = target: LuCKX1.1 protein (residues 44-534), purified (flax (Linum usitatissimum))
[2] = substrate: C/C(=C\CNc1ncnc2[nH]cnc12)CO; test: purified protein; conditions: 0.5 mM DCPIP as electron acceptor, 1.6 µM LuCKX1.1, McIlvaine buffer pH 7.5, no AvrL567-A
[3] = substrate: CC(C)=CCNc1ncnc2nc[nH]c12; test: purified protein; format: biochemical, Linum usitatissimum; conditions: 0.5 mM DCPIP as electron acceptor, 1.6 µM LuCKX1.1, McIlvaine buffer pH 7.5, no AvrL567-A

Row | Binder | turnover rate (Kcat) of LuCKX1.1 towards 2iP in the DCPIP kinetic assay, with 1.6 uM AvrL567-A against without it [1] [%] | turnover rate (Kcat) of LuCKX1.1 towards tZ in the DCPIP kinetic assay, with 1.6 uM AvrL567-A against without it [1] [%] | Km [2] [µM] | kcat [2] [s⁻¹] | Km [3] [µM] | kcat [3] [s⁻¹]
1 | B1 | 50 | 130 | – | – | – | –
2 | B2 | – | – | 64 | 0.69 | 44 | 5.4
